Results: the DeepSol protein solubility set

experiment: soluble on expression in E. coli; label from the status in PepcDB or PDB records

Question: Which “soluble on expression in E. coli” value does the source give for “MSLETELPQAQDGSVRLLQITDTHLFASAEGRLLAVRTAESLAAVLERVQANDHPFDLILATGDLSQDHSPESYQRFASMMAPLARPIYWLPGNHDDGPLMTEYLHAAGISEAKQLVGEHWQVILLDTQVRGKPHGVLGDHQLAALDQALRQHPERHALIALHHQAVPVGCAWLDQHNLKPTTLFAVLARHPQQKTILFGHVHQEFDETAGMRLIASPSTCIQFKPLSDGLRAGREGHHHHHH” here?
Answer: not soluble

Question: Which “soluble on expression in E. coli” value does the source give for “CLTRISRPWLVTSCIWNKQLIRRAVVWLCGLTGKPILKLTNKDYTENGLGELLAKYGSAYEVNIKLFNDIQHTITGWPGGKPNADDSSRPERALPYPKRVVIFSPHPDDDVISMGGTFHKLVNQGHDVHVAYQTSGNIAVGDEEVIRYVSYLRNVCRQYGHESSPILAKAEEVRHYLMHKKIEGDPEQEDIRFMKGTIRREEARTACRYLGLPEDHVHFLDLPFYETGLIRKNPLGEEDVRIIMALLEEIQPHRIFVAGDLADPHGTHRICLNAVLAAIDELKEESWFKEDCRVWMYRGAWAEWEIDYIEMAVPMSPDELRFKRNSILKHQSQMESAPFLGDDERLFWQRAEDRNRQTATLYEKLGLASYEAIEAFVQYRPVE” here?
Answer: not soluble

Question: For SVSEIQLMHNLGKHLNSMERVEWLRKKLQDVHNF, which “soluble on expression in E. coli” value is on record?
Answer: soluble

Question: With “GPGSMKVSSFIVQLRPGFFRLMIHAKPGARSTALAAQPQALDEALEVRLAAPPVDGKANTELVEFMQTLLEQQLATLRITQKQHLRKSGCEDGEDEVYTYEHYAKKKKSKNNKRMNEDSKSGEAKVEYPDDKVRVSLVSGLTSRNKVLEVTFPGTEEDLLAVLKSADFS” as the sequence, how does the “soluble on expression in E. coli” value read?
Answer: soluble

Question: For “MTQPEAVFFDCDGTLVDSEVICSRAYVHMFQEFGITLDLAEIFKRFKGVKLYEIIDTINAEYGVNLQKATLEPIYRAEVARLFDSELEVIPGAQALLDAVSVPMCVVSNGPVSKMQHSLGRTGLLRHFTDRLYSGYDIQRWKPDPALMFHAAEAMQVKAENCILVDDSSAGAQSGIAAGMEVFYFCADPHNQPIDHPKVTTFTDLAELPALWQARGWDITR”, which “soluble on expression in E. coli” value is on record?
Answer: not soluble

Question: For “MQAQQLPYEFFSEENAPKWRGLLVPALKKVQGQVHPTLESNDDALQYVEELILQLLNMLCQAQPRSASDVEERVQKSFPHPIDKWAIADAQSAIEKRKRRNPLSLPVEKIHPLLKEVLGYKIDHQVSVYIVAVLEYISADILKLVGNYVRNIRHYEITKQDIKVAMCADKVLMDMFHQDVEDINILSLTDEEPSTSGEQTYYDLVKAFMAEIRQYIRELNLIIKVFREPFVSNSKLFSANDVENIFSRIVDIHELSVKLLGHIEDTVEMTDEGSPHPLVGSCFEDLAEELAFDPYESYARDILRPGFHDRFLSQLSKPGAALYLQSIGEGFKEAVQYVLPRLLLAPVYHCLHYFELLKQLEEKSEDQEDKECLKQAITALLNVQSGMEKICSKSLAKRRLSESACRFYSQQMKGKQLAIKKMNEIQKNIDGWEGKDIGQCCNEFIMEGTLTRVGAKHERHIFLFDGLMICCKSNHGQPRLPGASNAEYRLKEKFFMRKVQINDKDDTNEYKHAFEIILKDENSVIFSAKSAEEKNNWMAALISLQYRSTLERMLDVTMLQEEKEEQMRLPSADVYRFAEPDSEENIIFEENMQPKAGIPIIKAGTVIKLIERLTYHMYADPNFVRTFLTTYRSFCKPQELLSLIIERFEIPEPEPTEADRIAIENGDQPLSAELKRFRKEYIQPVQLRVLNVCRHWVEHHFYDFERDAYLLQRMEEFIGTVRGKAMKKWVESITKIIQRKKIARDNGPGHNITFQSSPPTVEWHISRPGHIETFDLLTLHPIEIARQLTLLESDLYRAVQPSELVGSVWTKEDKEINSPNLLKMIRHTTNLTLWFEKCIVETENLEERVAVVSRIIEILQVFQELNNFNGVLEVVSAMNSSPVYRLDHTFEQIPSRQKKILEEAHELSEDHYKKYLAKLRSINPPCVPFFGIYLTNILKTEEGNPEVLKRHGKELINFSKRRKVAEITGEIQQYQNQPYCLRVESDIKRFFENLNPMGNSMEKEFTDYLFNKSLEIEPRNPKPLPRFPKKYSYPLKSPGVRPSNPRPGT”, which “soluble on expression in E. coli” value is on record?
Answer: soluble

Question: With “MTVVIGLTGGIASGKSTVSQMFRELSIPVIDADIIAREVVEKGKPAYNKIVEVFGTEVLQEDGELDRPKLGSVVFYNEEKRLQLNKIVHPAVREEMNRQKEMYIKEGMQAVVLDIPLLFESKLTSLVDRVLVVAVKPHTQLERLMKRNNFSEEEATARIQSQMPLEEKVKNADEVINNDGTIMGTKTQLQAILKKWNIID” as the sequence, how does the “soluble on expression in E. coli” value read?
Answer: not soluble

Question: With “MFQNLLENSKKFWIVLEPYGKFKKMLLRDLRGETHRGETRRGETRRGETHRGETHRGETHRGETHRGETHRGETHRGETYRGETHRGETHRGETHRGKTQNFGGKFKFSVKNILAGNLNFLKKIFWREI” as the sequence, how does the “soluble on expression in E. coli” value read?
Answer: not soluble

Question: For “MGSDKIHHHHHHMSTNISWTDETINPIVGCSRISAGCQNCYASTAAASARLQQFPQYQKVKDWNGTVEFAESALLKPLSWKKPKRIFVCSMSDLFHENVPDQWRDRVFGIMAAAHWHIFQVLTKRPLNALKYFQNFNLAQRIKDAGNLVCKPELPLKNVWFGVTCENQEMADKRIPILLQIPAKVRFLSCEPLLEEIDLSEVFGLYEYEEGKFALKVGSRWESSPDWVIVGGESGKDARVCHIDWVRSLTRQCQAAEVPVFVKQLGSNCIESLPYIAGVPSTDYQFKTSDRKGGDISEFPEDLQVRKFPDIHKTR”, which “soluble on expression in E. coli” value is on record?
Answer: not soluble

Question: Which “soluble on expression in E. coli” value does the source give for “MHHHHHHSSGVDLGTENLYFQSMKIAVIGQSLFGQEVYCHLRKEGHEVVGVFTVPDKDGKADPLGLEAEKDGVPVFKYSRWRAKGQALPDVVAKYQALGAELNVLPFCSQFIPMEIISAPRHGSIIYHPSLLPRHRGASAINWTLIHGDKKGGFSIFWADDGLDTGDLLLQKECEVLPDDTVSTLYNRFLFPEGIKGMVQAVRLIAEGKAPRLPQPEEGATYEGIQKKETAKINWDQPAEAIHNWIRGNDKVPGAWTEACEQKLTFFNSTLNTSGLVPEGDALPIPGAHRPGVVTKAGLILFGNDDKMLLVKNIQLEDGKMILASNFFK” here?
Answer: soluble

Question: For “MLSQLREIVEKVSRVDDVHLALDILVKETCAALRTECCTIYLANEEMQRLELMATQGLIFEGDSIHINFNEGLVGLVKRSAEPLNLAEASKHPEFKFFPQLGEQVYHSFLATPIIHRKQVLGVLVIQQKTPRLFSEMEESFLVTLSAQLAVIIAHAQSLGHWQ”, which “soluble on expression in E. coli” value is on record?
Answer: not soluble

Question: With “MGSDKIHHHHHHMTSKITRQANASEDSLLRIFTAPEDSTSTLSIIEQKLSQDLAGFLGNSIAALEKPLSEIETDFSAYQIPTEPKFVSDYADEIMQNLVAHSVHTSAPSFIGHMTSALPYFVLPLSKMMVGLNQNLVKIETSKAFTPLERQVLGMMHNLVYQQSDDFYHQWMHSANHSLGAFCSGGTVANITALWIARNRLLQPRGDFKGVTREGMTKALRFYGYDDLAILVSDRGHYSLGKTADLLGIGRDNIISIPTDEHHKVDVAAMRDAAEKLAQQNIKVMAIVGIAGTTETGNVDPLTELAALASELNCHFHVDAAWGGASLLSKKYSHLLKGIELADSVTIDAHKQMYVPMGAGMVLFKDPELAKAIVHHAEYILRVGSKDLGSQTLEGSRPGMAMLVHACLQIIGRDGYEILINNSLEKARYFGSIIDQHADFELVTAPELCLLTYRYVPKSVQAILTTALANQDSALVASINELLDGLTQFIQKHQREQGKSFVSRTRIKPAKYLRQPTTVFRVVLANPLTSHQILHDVLTEQVEIAALDSEYLPQLLAL” as the sequence, how does the “soluble on expression in E. coli” value read?
Answer: not soluble

Question: For “MSLKQILNHARIVLADRVIDNGALEINDGRIAAIHEHALPDGEDLAGALLLPGLVEIHTDNLEKHLMPRNGVLWPILPAVITHDAQCVAAGITTVLDALAVGDLEGESVRLDTLHSSFDAINQGMREGALRADHFFHLRCELAYPGLLDELEALIAHPAVKLVSVMDHTPGQRQYRDLEQYKKYYGKKKVGWNEDTFLAAVAERKTKQAQYAGRHKQAVVELAQARGIALASHDDTDEAHIEEALRDGVAISEFPTTREAAAAAKRHGLATVMGAPNVVRGGSHSGNVAALELARHDLLDILSSDYVPASLLHGAWLLHAQAGWSLPRAVAAVSLNPAHSVGLADRGDIAVGQRADLVAMIVHGDVPLVRQVWNSGRRVFEGHHHHHH”, which “soluble on expression in E. coli” value is on record?
Answer: soluble

Question: For “VEPDIRTGTIQDVQHVVILMQENRSFDHYFGHLNGVRGFNDPRALKRQDGKPVWYQNYKYEFSPYHWDTKVTSAQWVSSQNHEWSAFHAIWNQGRNDKWMAVQYPEAMGYFKRGDIPYYYALADAFTLCEAYHQSMMGPTNPNRLYHMSGRAAPSGDGKDVHIGNDMGDGTIGASGTVDWTTYPERLSAAGVDWRVYQEGGYRSSSLWYLYVDAYWKYRLQEQNNYDCNALAWFRNFKNAPRDSDLWQRAMLARGVDQLRKDVQENTLPQVSWIVAPYCYCEHPWWGPSFGEYYVTRVLEALTSNPEVWARTVFILNYDEGDGFYDHASAPVPPWKDGVGLSTVSTAGEIEVSSGLPIGLGHRVPLIAISPWSKGGKVSAEVFDHTSVLRFLERRFGVVEENISPWRRAVCGDLTSLFDFQGAGDTQVAPDLTNVPQSDARKEDAYWQQFYRPSPKYWSYEPKSLPGQEKGQRPTLAVPYQLHATLALDIAAGKLRLTLGNDGMSLPGNPQGHSAAVFQVQPREVGNPRFYTVTSYPVVQESGEELGRTLNDELDDLLDANGRYAFEVHGPNGFFREFHGNLHLAAQMARPEVSVTYQRNGNLQLNIRNLGRLPCSVTVTPNPAYTREGSRRYELEPNQAISEVWLLRSSQGWYDLSVTASNTEANYLRRLAGHVETGKPSRSDPLLDI”, which “soluble on expression in E. coli” value is on record?
Answer: not soluble

Question: With “GPGSMAKRDKRRTSLVQQNFDSLKRFYAISPFAAAERATLPPVYSGVYSRRAAMNSYHVVGSSRDQIVLEAMRTFTPSVCTKEVMDLYLEVAALVSLYFDTKEQLLALPDV” as the sequence, how does the “soluble on expression in E. coli” value read?
Answer: not soluble

Question: With “QLPCNLSPLNWVGMQHIDLPTVIDTANQTVNTKVDVYVNLPKSSVKGIHMSRLYHLINHLSVLNTMSIKSVLKQMIDSHQDCGTTAAKIVFKFDLLLKRDAIVSTALSGWKSYPVIIEASIINELFNIEYKLDISYSSTCPCSAALSRQIIKNGFKADFSSQNLIPSADIEAWLEQYATLATPHSQRSIATVVVQPFDYAHDINFVDLIDSIENTLKTPTQTAVKRADEQAFAKLNGENLMFVEDAARRLKMLLDQKYKFWSAQVVHQESLHPHDAIAVAISS” as the sequence, how does the “soluble on expression in E. coli” value read?
Answer: not soluble

Question: With “SAQESLESQEQRARAALRERYLRSLLAMVGHQVSFTLHEGVRVAAHFGATDLDVANFYVSQLQTPIGVQAEALLRCSDIISYTFKP” as the sequence, how does the “soluble on expression in E. coli” value read?
Answer: soluble

Question: With “NEDNSFTVRANMTYAVSKVVHWDQDAVRYPYQSYSDVNYGVMRGLVALGLFQNQDEINRSPKQTYGEVRPGDIRYKDVNADGKIDDDDIVPIAHSNVPQIQYGFALEYRYKRWTISALFTGAAKVNFLYGGSGFYPFSGGEVGNILSIVNDPKNRWTPAWYSGDPSTENPNARFPRLTYGENKNNNRASTFWLADGSYLRWKSLDISYRIGTNKVLRTVGISDMNLQFVGQNLAVWDSVKLWDPGQASKNGAVYPLQRTFSLQLTATF” as the sequence, how does the “soluble on expression in E. coli” value read?
Answer: not soluble

Question: With “MSLALLNVDKLSVHFGDESAPFRAVDRISYSVKQGEVVGIVGESGSGKSVSSLAIMGLIDYPGRVMAEKLEFNGQDLQRISEKERRNLVGAEVAMIFQDPMTSLNPCYTVGFQIMEAIKVHQGGNKSTRRQRAIDLLNQVGIPDPASRLDVYPHQLSGGMSQRVMIAMAIACRPKLLIADEPTTALDVTIQAQIIELLLELQQKENMALVLITHDLALVAEAAHKIIVMYAGQVVETGDAHAIFHAPRHPYTQALLRALPEFAQDKERLASLPGVVPGKYDRPNGCLLNPRCPYATDRCRAEEPALNMLADGRQSKCHYPLDDAGRPTEGHHHHHH” as the sequence, how does the “soluble on expression in E. coli” value read?
Answer: soluble

Question: With “MSKKQSSTPHDALFKLFLRQPETARDFLAFHLPAPIHALCDMKTLKLESRSFIDDDLRESYSDVLWSVKTEQGPGYIYCLIEHQSTSNKLIAFRMMRYAIAAMQNHLDAGYKTLPMVVPLLFYHGIESPYPYSLCWLDCFADPKLARQLYASAFPLIDVTVMPDDEIMQHRRMALLELIQKHIRQRDLMGLVEQMACLLSSGYANDRQIKGLFNYILQTGDAVRFNDFIDGVAERSPKHKESLMTIAERLRQEGEQSKALHIAKIMLESGVPLADIMRFTGLSEEELAAASRLAP” as the sequence, how does the “soluble on expression in E. coli” value read?
Answer: not soluble
